# Results published in patent US20170334947A1.
# Tests used:
# [1] = biological target: Fab fragment of anti-TNFα monoclonal antibody (generic name: Adalimumab) (humanized monoclonal IgG product (filing's words)); test: affinity chromatography, ligand 2.0 mg/mL-gel
# [2] = biological target: Fab fragment of anti-TNFα monoclonal antibody (generic name: Adalimumab) (humanized monoclonal IgG product (filing's words)); test: affinity chromatography, Fab kept after 40 CV wash, ligand 2.0 mg/mL-gel, 4.8 mg Fab loaded
# [3] = biological target: Fab fragment of anti-TNFα monoclonal antibody (generic name: Adalimumab) (humanized monoclonal IgG product (filing's words)); test: affinity chromatography, Protein-G Sepharose FF
# [4] = biological target: Fab fragment of anti-TNFα monoclonal antibody (generic name: Adalimumab) (humanized monoclonal IgG product (filing's words)); test: affinity chromatography, 55% DBC divided by immobilised ligand, 2.0 mg/mL-gel
# [5] = biological target: Fab fragment of anti-TNFα monoclonal antibody (generic name: Adalimumab) (humanized monoclonal IgG product (filing's words)); test: affinity chromatography, Fab kept after 40 CV wash, ligand 2.0 mg/mL-gel, 5.2 mg Fab loaded
# [6] = biological target: Fab fragment of anti-TNFα monoclonal antibody (generic name: Adalimumab) (humanized monoclonal IgG product (filing's words)); test: affinity chromatography, ligand […]-gel
# [7] = biological target: Fab fragment of anti-TNFα monoclonal antibody (generic name: Adalimumab) (humanized monoclonal IgG product (filing's words)); test: affinity chromatography, Fab kept after 40 CV wash, ligand […]-gel, 10.5 mg Fab loaded
Substance,55% DBC [1],Recovery rate [2],55% DBC [3],Binding capacity per ligand density [4],Recovery rate [5],55% DBC [6],Recovery rate [7]
Protein G ligand of the commercial carrier HiTrap Protein-G HP (GE Healthcare),9.7 mg/mL-gel,6%,–,–,–,–,–
Protein G ligand of the commercial carrier Protein-G Sepharose FF (GE Healthcare),–,–,6.2 mg/mL-gel,–,–,–,–
Pep-SpGβ1-Wild.2dC,10.4 mg/mL-gel,–,–,5.2,28%,21 mg/mL-gel,43%
